Earlier results in PMC12020373.

Columns and labels:
His113 [1] = target: His113 (UniProt position 114, SEAIIHVLHSR)
His116 [2] = target: His116 (UniProt position 117, IIHVLHSRHPG)
His12 = His12 (UniProt position 13, WQLVLHVWAKV)
His36 [3] = target: His36 (UniProt position 37, RLFKSHPETLE)
His48 = His48 (UniProt position 49, FDRFKHLKTEA)
His81 = His81 (UniProt position 82, LKKKGHHEAEL)
Cys36 = Cys36 (UniProt position 37, YKQATCGDINT)
Cys32 [4] = target: Cys32 (UniProt position 33, FWAEWCGPCKM)
Cys65 = Cys65 (UniProt position 66, ELKGTCKEDAM)
Cys403 = Cys403 (UniProt position 403, RPVIHCRAGVG)
His113 [5] = target: His113 (UniProt position 114, SDAIIHVLHSK)
His116 [6] = target: His116 (UniProt position 117, IIHVLHSKHPG)
His119 = His119 (UniProt position 120, VLHSKHPGDFG)
His36 [7] = target: His36 (UniProt position 37, RLFTGHPETLE)
Cys46 [8] = target: Cys46 (UniProt position 47, TERPGCLDFKG)
Cys145 = Cys145 (UniProt position 145, PILIPCHRVVC)
Cys126 = Cys126 (UniProt position 127, GDFGACAQGAM)
Cys25 [9] = target: Cys25 (UniProt position 157, GSCGSCWAFSA)
Cys215 = Cys215 (UniProt position 215, PVVVHCSAGIG)
Cys125 = Cys125 (UniProt position 126, PGDFGCDAQGA)
Cys106 = Cys106 (UniProt position 106, LIAAICAGPTA)
His46 = His46 (UniProt position 128, TPETKHPKKGV)
His8 = His8 (UniProt position 90, STKKLHKEPAT)
Cys124 = Cys124 (UniProt position 125, HPGDFCADAQG)
Cys40 = Cys40 (UniProt position 40, FSASWCPPCRG)
Cys88 = Cys88 (UniProt position 88, ADGSICLDILQ)
Cys29 = Cys29 (UniProt position 108, GSCGSCWAFGA)
His31 = His31 (UniProt position 31, TIGIGHLLTKS)
Cys32 [10] = target: Cys32 (UniProt position 32, FSATWCGPCKM)
His43 = His43 (UniProt position 43, IKPFFHSLSEK)
Cys46 [11] = target: Cys46 (UniProt position 47, DFTFVCPTELG)
Cys283 [12] = target: Cys283 (UniProt position 283, GYVLTCPANLG)
Cys25 [13] = target: Cys25 (UniProt position 158, GSCGSCWAFSA)
Cys17 = Cys17 (UniProt position 18, VKHLKCKPADE)
Cys78 = Cys78 (UniProt position 79, YIDKVCELKKK)
His124 = His124 (UniProt position 124, EWVKGHAGHPE)
His127 = His127 (UniProt position 127, KGHAGHPENER)
His62 = His62 (UniProt position 62, EALKEHCEVIL)
His83 = His83 (UniProt position 83, ITQWIHNWKKR)
Cys283 [14] = target: Cys283 (UniProt position 283, GYVLTCPSNLG)

ubiquitin-conjugating enzyme UbcH10 (Homo sapiens)
pKa (Cys85): 10.9

myoglobin (PDB 1A6K) (Physeter macrocephalus (sperm whale; inferred))
pKa (His113 [1]): 5.51 | pKa (His116 [2]): 6.70 | pKa (His12): 6.49 | pKa (His36 [3]): 7.98 | pKa (His48): 5.55 | pKa (His81): 6.88

acyl-CoA-binding protein (PDB 1NTI) V36C (Bos taurus (inferred); V36C)
pKa (Cys36): 9.5

thioredoxin (Escherichia coli)
pKa (Cys32 [4]): 7.3

acyl-CoA-binding protein (PDB 1NTI) S65C (Bos taurus (inferred); S65C)
pKa (Cys65): 9.0

protein tyrosine phosphatase YopH (Yersinia (species not stated; Y. enterocolitica for 1YPT to my knowledge))
pKa (Cys403): 4.7

myoglobin (PDB 1DWR) (Equus caballus (horse; inferred))
pKa (His113 [5]): 5.87 | pKa (His116 [6]): 6.79 | pKa (His119): 6.56 | pKa (His36 [7]): 7.8 | pKa (His81): 6.94

thiol:disulfide interchange protein DsbA (Escherichia coli (inferred))
pKa (Cys28): 3.3

acyl-CoA-binding protein (PDB 1NTI) M46C (Bos taurus (inferred); M46C)
pKa (Cys46 [8]): 8.2

O6-alkylguanine-DNA alkyltransferase (AGT/MGMT) (Homo sapiens)
pKa (Cys145): 5.3

myoglobin D126C (Physeter macrocephalus (sperm whale); D126C)
pKa (Cys126): 8.1

ubiquitin-conjugating enzyme Ubc13 (PDB 1JBB) (Saccharomyces cerevisiae (inferred))
pKa (Cys85): 11.1

caricain (papaya protease omega) (Carica papaya)
pKa (Cys25 [9]): 2.9

protein-tyrosine phosphatase 1B / PTP1 (Homo sapiens for the listed structure; the pKa source title says only 'mammalian' PTP1)
pKa (Cys215): 5.6

myoglobin A125C (Physeter macrocephalus (sperm whale); A125C)
pKa (Cys125): 8.4

DJ-1 (PARK7) (Homo sapiens)
pKa (Cys106): 5.4

staphylococcal nuclease (PDB 1EY0) (Staphylococcus aureus (inferred))
pKa (His46): 5.86 | pKa (His8): 6.52

myoglobin G124C (Physeter macrocephalus (sperm whale); G124C)
pKa (Cys124): 6.5

tryparedoxin (Trypanosoma brucei (inferred from PDB 1O73))
pKa (Cys40): 7.2

ubiquitin-conjugating enzyme E2 (PDB 1JAS; HsUbc2b) (Homo sapiens (inferred))
pKa (Cys88): 10.2

methionine sulfoxide reductase A E115Q (Mus musculus; E115Q)
pKa (Cys51): 8.2

cathepsin B (Rattus norvegicus)
pKa (Cys29): 3.6

T4 lysozyme (PDB 2LZM) (Enterobacteria phage T4 (inferred))
pKa (His31): 9.1

thioredoxin (Homo sapiens)
pKa (Cys32 [10]): 6.3 | pKa (His43): 5.5

alkyl hydroperoxide reductase C (peroxiredoxin AhpC) (Salmonella enterica serovar Typhimurium (inferred; article says only 'bacterial'))
pKa (Cys46 [11]): 5.9

muscle creatine kinase S285A (Homo sapiens; S285A)
pKa (Cys283 [12]): 6.7

alpha1-antitrypsin (Homo sapiens)
pKa (Cys210): 6.9

papain (Carica papaya)
pKa (Cys25 [13]): 3.3

thiol-disulfide oxidoreductase ResA (Bacillus subtilis (inferred))
pKa (Cys35): 8.8

acyl-CoA-binding protein (PDB 1NTI) T17C (Bos taurus (inferred); T17C)
pKa (Cys17): 9.8

acyl-CoA-binding protein (PDB 1NTI) E78C (Bos taurus (inferred); E78C)
pKa (Cys78): 9.6

methionine sulfoxide reductase A (MsrA) (Mus musculus)
pKa (Cys51): 7.2

ribonuclease HI (Escherichia coli)
pKa (His124): 7.1 | pKa (His127): 7.9 | pKa (His62): 7.0 | pKa (His83): 5.5

muscle creatine kinase (Homo sapiens)
pKa (Cys283 [14]): 5.6
